± gives the standard deviation of the averaged measurements.
Columns and labels:
Saccharomyces cerevisiae [1] = test: protein stability index of tFT-peptide fusion (C-terminal peptide) (PSI (0-1 scale)); higher = more stable (slower turnover)
Description: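 MPS profiling in S. cerevisiae of the tFT-X12 degron library: putative degron peptides plus stable controls, 12 aa, fused to the C-terminus of a sfGFP-mCherry timer. Cells are FACS-sorted into 8 mCherry/sfGFP bins and deep-sequenced. PSI runs from 0 (unstable) to 1 (stable). Backgrounds are wild type, das1Δ and doa10Δ at 30 °C, and wild type, das1Δ, cdc34-1 and cdc53-1 at 37 °C; 2-3 technical replicates each.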

Saccharomyces cerevisiae [2] = test: as above; conditions: genetic background: wild type; temperature: 30 C
[3] = genetic background: cdc34-1, temperature: 37 C
[4] = genetic background: cdc53-1, temperature: 37 C
[5] = genetic background: das1 deletion, temperature: 30 C
[6] = genetic background: das1 deletion, temperature: 37 C
[7] = genetic background: doa10 deletion, temperature: 30 C
[8] = genetic background: wild type, temperature: 30 C
[9] = genetic background: wild type, temperature: 37 C
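Note: PSI is a weighted mean of sequencing reads over stability bins, variants kept only with over 10 reads, mCherry proximal and sfGFP distal, peptide attached via GGGS linker.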

Sequence	protein stability index (Saccharomyces cerevisiae [2])	further results
GRTDFSTLLLIC		protein stability index (Saccharomyces cerevisiae [1]; [3]): 0.491 ± 0.016; protein stability index (Saccharomyces cerevisiae [1]; [4]): 0.6912 ± 0.0053; protein stability index (Saccharomyces cerevisiae [1]; [5]): 0.564 ± 0.018; protein stability index (Saccharomyces cerevisiae [1]; [6]): 0.683 ± 0.019; protein stability index (Saccharomyces cerevisiae [1]; [7]): 0.106 ± 0.012; protein stability index (Saccharomyces cerevisiae [1]; [8]): 0.132 ± 0.039; protein stability index (Saccharomyces cerevisiae [1]; [9]): 0.16 ± 0.056
GAQQRVKERYIE		protein stability index (Saccharomyces cerevisiae [1]; [3]): 0.648 ± 0.012; protein stability index (Saccharomyces cerevisiae [1]; [4]): 0.721 ± 0.027; protein stability index (Saccharomyces cerevisiae [1]; [5]): 0.636 ± 0.028; protein stability index (Saccharomyces cerevisiae [1]; [6]): 0.7346 ± 0.0027; protein stability index (Saccharomyces cerevisiae [1]; [7]): 0.6157 ± 0.0038; protein stability index (Saccharomyces cerevisiae [1]; [8]): 0.646 ± 0.03; protein stability index (Saccharomyces cerevisiae [1]; [9]): 0.741 ± 0.00086
VSVFWVFLLVAG		protein stability index (Saccharomyces cerevisiae [1]; [3]): 0.223 ± 0.0059; protein stability index (Saccharomyces cerevisiae [1]; [4]): 0.375 ± 0.011; protein stability index (Saccharomyces cerevisiae [1]; [5]): 0.245 ± 0.024; protein stability index (Saccharomyces cerevisiae [1]; [6]): 0.4401 ± 0.0035; protein stability index (Saccharomyces cerevisiae [1]; [7]): 0.189 ± 0.012; protein stability index (Saccharomyces cerevisiae [1]; [8]): 0.218 ± 0.024; protein stability index (Saccharomyces cerevisiae [1]; [9]): 0.383 ± 0.016
AFYQSGGLVVVV		protein stability index (Saccharomyces cerevisiae [1]; [3]): 0.618 ± 0.043; protein stability index (Saccharomyces cerevisiae [1]; [4]): 0.617 ± 0.016; protein stability index (Saccharomyces cerevisiae [1]; [5]): 0.459 ± 0.034; protein stability index (Saccharomyces cerevisiae [1]; [6]): 0.6279 ± 0.0048; protein stability index (Saccharomyces cerevisiae [1]; [7]): 0.45 ± 0.016; protein stability index (Saccharomyces cerevisiae [1]; [8]): 0.477 ± 0.024; protein stability index (Saccharomyces cerevisiae [1]; [9]): 0.591 ± 0.046
CFGFSLKFGTGK	0.668 ± 0.033	
YVSLAHLRWGVE	0.732 ± 0.055	
QPRLPLPLSSPV	0.611 ± 0.071	
PLPDPPPTPSGT	0.682 ± 0.058	
PCPPHILAPPPS	0.713 ± 0.0091	
GVGWQSPGVLVL	0.605 ± 0.017	
GQCHYSSFPVRQ	0.732 ± 0.011	
RAVFLCVWDYSG	0.597 ± 0.13	
GGAWESGRVEQV	0.684 ± 0.041	
IPCLPHPSLPPQ	0.757 ± 0.039	
PLPPPPHPLLLL	0.681 ± 0.024	
RKMQKKFESKKM	0.76 ± 0.039	
VTIDETMSKGIN	0.698 ± 0.045	
YPTLMRNGTEKT	0.696 ± 0.017	
MTYKSKNRATEE	0.648 ± 0.025	
CGVVSSSVDCIN	0.699 ± 0.028	
ALPPPRPPPPSP	0.692 ± 0.034	
TRKFATPRITVV	0.6939 ± 0.0038	

Sequence	protein stability index (Saccharomyces cerevisiae [2])	further results
GFLVALVSRIGW	0.565 ± 0.037	
SPLEFPLLPSGV	0.7 ± 0.064	
RCYSFTKIRNNL	0.718 ± 0.13	
KKGVSNKVSGFT	0.719 ± 0.014	
PSPPHPPIPTSP	0.696 ± 0.015	
NIIRGVIAGNPA	0.747 ± 0.026	
KVVVWRAKTSHS	0.692 ± 0.068	
NILTIYRTMKSR	0.6855 ± 0.0056	
GAGLSLALSGPL	0.607 ± 0.0094	
DGTRVSFLGHKG	0.665 ± 0.053	
NRNDKNIERRKM	0.69 ± 0.069	
SFERPAQAHALA	0.698 ± 0.012	
CNCGGRGCGWMR	0.651 ± 0.025	
ARLGKASYSVFS	0.729 ± 0.027	
ASPAASSPYGTR	0.733 ± 0.051	
NYNNGHNLKKER	0.634 ± 0.012	
AHVDWRLPEPNR	0.7172 ± 0.0069	
PLPLPLPSRPRP	0.653 ± 0.044	
ITSSPNVGKTTN	0.713 ± 0.024	
VGFCFDGVHFRA	0.639 ± 0.016	
PPPLLPASFHLP	0.629 ± 0.0082	
SSFGPSFLTLFF	0.70403 ± 0.00044	

Sequence	protein stability index (Saccharomyces cerevisiae [2])	further results
GGGRGAGIPVIF	0.623 ± 0.073	
YAAQLGLGVLVG	0.6 ± 0.0077	
PPLPPPTSPPRP	0.69 ± 0.038	
GGGGGVWWVGRV	0.678 ± 0.074	
SPSPLPLSPSPL	0.749 ± 0.086	
SFACLLGRGWVD	0.719 ± 0.06	
RDTHSEPKPAQY	0.721 ± 0.0088	
GLPPPAPRRPDL	0.664 ± 0.0077	
KKNIKKKTKQKE	0.696 ± 0.007	
GRRLVHKVDWSL	0.666 ± 0.043	
PVSPLFWSAKRL	0.71061 ± 0.00011	
SSPPPPVPPPPS	0.725 ± 0.082	
SLFHTSLAYSFF	0.7143 ± 0.0066	
GDECHSCSSPIA	0.786 ± 0.13	
TDNIRIERYKEQ	0.689 ± 0.064	
KKIKKKKNKKQE	0.735 ± 0.075	
MNVASCRGREYV	0.686 ± 0.032	
RRGRNDLEESMR	0.702 ± 0.0078	
SRAPHPPPPTLP	0.711 ± 0.021	
GPGSCPVRLCGF	0.661 ± 0.0074	
ACGALAKMILFW	0.663 ± 0.059	
PPPPPSSPPPPA	0.639 ± 0.099	

Sequence	protein stability index (Saccharomyces cerevisiae [2])	further results
GSIWGVGWGQGV	0.682 ± 0.11	
AYGVGQERWVRE	0.725 ± 0.061	
SSPPPAFPRASP	0.633 ± 0.015	
IRAKKLNKSNNK	0.7028 ± 0.0053	
RCGGEWTGGVWR	0.845 ± 0.22	
KSKKKKKNKTNR	0.6792 ± 0.0022	
FYLLTASVCGMF	0.53 ± 0.0053	
VGGDRVGPEPEC	0.718 ± 0.063	
FGCCCGGGLLGV	0.711 ± 0.027	
RAKRMVGQTIQE	0.765 ± 0.18	
EFALVFVRARRA	0.586 ± 0.047	
FLFVVSFGGAVA	0.512 ± 0.0061	
VGGREVSRAGGG		protein stability index (Saccharomyces cerevisiae [1]; [3]): 0.62 ± 0.048; protein stability index (Saccharomyces cerevisiae [1]; [4]): 0.672 ± 0.0081; protein stability index (Saccharomyces cerevisiae [1]; [5]): 0.49 ± 0.027; protein stability index (Saccharomyces cerevisiae [1]; [6]): 0.578 ± 0.06; protein stability index (Saccharomyces cerevisiae [1]; [7]): 0.477 ± 0.0076; protein stability index (Saccharomyces cerevisiae [1]; [8]): 0.481 ± 0.011; protein stability index (Saccharomyces cerevisiae [1]; [9]): 0.534 ± 0.041
NGGRSATGSVVV	0.701 ± 0.066	
VGWAVNGSMVVG	0.662 ± 0.021	
SVTDCTADHASV	0.653 ± 0.056	
KKNEEKRRGEGK	0.67 ± 0.049	
TEWIRGTAVNSS	0.701 ± 0.023	
PLAPPRSPHLPP	0.673 ± 0.041	
ESDSEITYNKKQ	0.729 ± 0.012	
LPPHSASLSSSF		protein stability index (Saccharomyces cerevisiae [1]; [3]): 0.701 ± 0.054; protein stability index (Saccharomyces cerevisiae [1]; [4]): 0.7591 ± 0.0059; protein stability index (Saccharomyces cerevisiae [1]; [5]): 0.635 ± 0.029; protein stability index (Saccharomyces cerevisiae [1]; [6]): 0.725 ± 0.011; protein stability index (Saccharomyces cerevisiae [1]; [7]): 0.665 ± 0.015; protein stability index (Saccharomyces cerevisiae [1]; [8]): 0.675 ± 0.022; protein stability index (Saccharomyces cerevisiae [1]; [9]): 0.704 ± 0.013
RVLRKIWEWKKG	0.685 ± 0.051	

Sequence	protein stability index (Saccharomyces cerevisiae [2])	further results
GKRAKKKNTKRY	0.662 ± 0.14	
WGPGGGGVSDGM	0.768 ± 0.019	
FPCVAVFVESNR	0.647 ± 0.049	
PRPSPLSSLSVS	0.7206 ± 0.0064	
LVWGGVWGAPCR	0.774 ± 0.034	
VFGCAGVGGDCG	0.67 ± 0.028	
LSCSPVFFPLQP	0.69 ± 0.0096	
PSHVFSDCIAPP	0.696 ± 0.011	
SPLSPPHRHNTT	0.701 ± 0.017	
GGGVSCGRWGTG	0.639 ± 0.086	
VGWCPLVGGSGQ	0.753 ± 0.039	
TAKGSSIMCVKI	0.729 ± 0.05	
LACTSPLLLRFR	0.673 ± 0.023	
LVPDGFMLALKE	0.686 ± 0.038	
GRIMRVPNENLT	0.696 ± 0.22	
HSHIPPNLTYCP	0.69396 ± 0.00029	
VAGAGAGREAAY	0.616 ± 0.026	
GCVVLGFDSVAV	0.842 ± 0.2	
MIIPTVLCRVDL	0.661 ± 0.022	
VSLVDRFVLAIV	0.5619 ± 0.0011	
LPSHPHDRPPQT	0.719 ± 0.019	
LYMSRYLQLNFG	0.653 ± 0.005	

Sequence	protein stability index (Saccharomyces cerevisiae [2])	further results
GAIKKTQGGGYK	0.69 ± 0.019	
PPDGRPPPLRLM	0.679 ± 0.014	
TGKWRSFQAYYY	0.667 ± 0.039	
PDRGLRLKRILP	0.5675 ± 0.0017	
LRQVGTASSLRR	0.717 ± 0.045	
PPPPTPLPPPDP	0.68 ± 0.035	
SDSAPSPPAFLP	0.6569 ± 0.0025	
GWWAVSRSGCCC	0.693 ± 0.015	
GIFRTRGFPPVG	0.694 ± 0.088	
LLQSPRLGQEWA	0.6928 ± 0.0028	
RSLLLINRPTPP	0.714 ± 0.015	
PLTPPPAVHTYL	0.72 ± 0.037	
IWTSFKRRRWNF	0.532 ± 0.033	
PGALILSNRFFS	0.685 ± 0.041	
EFTGVYLWERGW	0.7 ± 0.041	
PPSARLPPPPPR	0.789 ± 0.12	
LALRMLWSIVRT	0.599 ± 0.079	
FPPLRSLPPTPP	0.793 ± 0.12	
FVSGSVCPLLPP	0.667 ± 0.026	
LPPSPLPPLPPP	0.6942 ± 0.0012	
EHERQQYKNYNK	0.671 ± 0.057	

— the supplement of paper PMC10724198
